In this series the test system is g10-reactive antibodies (anti-g10 serum). The series is described as follows: Competition for immunoprecipitation of [35S] g10-U1-A fusion protein by anti-g10 serum. In kind it is binding, rabbit. An excerpt: Panel A: Western blot of E. coli extracts containing various U1-A protein constructs. All extracts were produced from induced E. coli cells containing recombinant pET-8c T7 expression vectors in accordance with known techniques. See F. Studier et al., Meth. Enzym. 185, 60-89 (1991). U1-A cDNA was cloned into pET-8c either attached or not attached to the g10 peptide. Lanes: 1, 5 and 9: the pET-8c vector alone; 2, 6 and 10: g10-U1-A protein; 3, 7 and 11: U1-A protein; 4, 8 and 12: total HeLa cell extracts. Lanes 1-4 were probed with pre-immune rabbit serum; lanes 5-8 were probed with anti-g10 serum; and lanes 9-12 were probed with a U1/U2-specific autoimmune serum (patient). EW reacts with U1 RNA, U1-70K (70 kDa), U1-A (31 kDa) and U2-A′ (28.4 kDa) (lane 12). Panel B: Immunoprecipitation and competition analysis of [^35S]-methionine-labeled U1-A and g10-U1-A proteins expressed by in vitro transcription, and subsequent translation in rabbit reticulocyte lysates. Lanes: 1 and 2 show the amount of U1-A and g10-U1-A translation product, respectively, added to each immunoprecipitation reaction; 3: blank; 4 and 5: U1-A and g10-U1-A precipitated with serum EW (reactive with U1-A); 6 and 7: U1-A and g10-U1-A, respectively, precipitated with anti-g10 serum. In lanes 8-12, g10-U1-A was precipitated with anti-g10 serum in the presence of varying amounts of competitors as follows: lanes 8-11 contained the g10 peptide at concentrations of 27.8, 83.3, 250 and 750 nM, respectively; lane 12 contained a control peptide (sequence GKSRGFAFVEFK-amide) (SEQ ID NO:4) at a concentration of 25 mM. The faint lower band in all lanes represents either a degradation product or a premature translation termination product and is seen consistently in U1-A translations.
[^32P] labeled in vitro transcribed D10 RNA or [^35S] labeled in vitro translated g10 fusion protein (g10-U1A) was immunoprecipitated by the anti-g10 serum in the presence of various competitors. D10 RNA and g10 fusion protein bound in the immunoprecipitations were analyzed using denaturing polyacrylamide gels and autoradiography. […]

B1: D10 RNA: single RNA species selected from the degenerate pool by anti-g10 serum (SEQ ID NO:3); U1 stem II with loop UGGUGGAGCA (nucleic acid)
chain: GGGCCACCAACGACAUUGGGCGAGGCUUAUCCUGGUGGAGCAGGAUGUGCUGACCCCGUUGAUAUAAAUAGUGCCCAUGGAUC
modifications: chemistry not given here
notes: U1 stem II with loop UGGUGGAGCA
Take B1: the “competition with g10 fusion protein for binding to the antibody” value (FIG. 5C, 0.7 nM competitor RNA) is listed as “able to compete”. Moreover, the “competition with [35S] labeled g10 fusion protein, increasing amounts of competitor” value (FIG. 5D, 0.0175-1.05 nM D10 RNA) is given as “able to progressively compete”.

These data come from patent US6582902B1, “Method for deriving epitopes” (priority 1992, dated 2003).
